Measured values: patent US20210122814A1 (SCHOLAR ROCK, published 2021)

Legend:
LTBP:proTGFβ1 = LTBP:proTGFβ1 (human); assay: cell-based or functional assay
[1] = molecular target: T1, recombinant human GARP-proTGFβ1 complex (human, UniProt P01137 30-390; Q14392 20-627); assay: MSD-SET (solution equilibrium titration), % free antigen against Ab6 concentration
T1 construct: also called hGARP-proTGFβ1; hGARP
Method: (§1) MSD-SET assays were performed to measure affinities of the antibodies at equilibrium. Briefly, each test antibody was diluted 3-5 fold and samples were mixed with biotinylated antigen in a 48-well dish. The SET samples were equilibrated for 20-24 hours at room temperature. Meanwhile, a capture plate was coated with IgG (20 nM) and incubated overnight at 4° C. or 30 minutes at room temperature, followed by a blocking step with 5% BSA. After the capture plate was washed three times, SET samples were added and incubated for 150 seconds. The plate was washed once to remove unbound complexes. 250 ng/ml SA-Sulfotag was added then washed 3 times. 2× Read Buffer was added, and signals from the labeled bound complexes were read with the use of QuickPlex™ SQ 120 instrument.
(§2) As an example, MSD standard plates (MSD) were coated with a 20 nM solution of monoclonal antibody in PBS for 30 min at room temperature or overnight at 4° C. […] After 20-24 hours of equilibration, the antibody-coated plate was blocked with Blocking Buffer A (MSD) for 30 minutes at room temperature and washed with wash buffer (PBS, 0.1% BSA, 0.05% Tween-20) before adding the equilibrated antibody-antigen complexes to the plate for exactly 2.5 minutes. […] After washing with wash buffer, plates were read in MSD read buffer (MSD) using the MESO QuickPlex SQ 120 (MSD). […]

[2] = molecular target: T2, recombinant human LRRC33-proTGFβ1 complex (human, UniProt P01137 30-390; Q86YC3 19-650); assay: as above
T2 construct: also called hLRRC33-proTGFβ1; hLRRC33
Method: as §1, §2

T1 sequence (P01137 30-390, chain 1 of 2): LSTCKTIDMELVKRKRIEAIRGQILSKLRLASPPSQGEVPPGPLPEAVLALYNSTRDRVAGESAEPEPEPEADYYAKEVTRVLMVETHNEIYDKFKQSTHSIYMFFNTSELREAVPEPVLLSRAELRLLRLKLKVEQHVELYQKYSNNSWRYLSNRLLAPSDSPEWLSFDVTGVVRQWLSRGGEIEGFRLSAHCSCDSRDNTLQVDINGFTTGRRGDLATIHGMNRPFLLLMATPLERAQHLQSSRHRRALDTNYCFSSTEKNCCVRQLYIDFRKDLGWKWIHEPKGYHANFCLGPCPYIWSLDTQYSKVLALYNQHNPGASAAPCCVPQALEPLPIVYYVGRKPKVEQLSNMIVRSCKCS
T1 sequence (Q14392 20-627, chain 2 of 2): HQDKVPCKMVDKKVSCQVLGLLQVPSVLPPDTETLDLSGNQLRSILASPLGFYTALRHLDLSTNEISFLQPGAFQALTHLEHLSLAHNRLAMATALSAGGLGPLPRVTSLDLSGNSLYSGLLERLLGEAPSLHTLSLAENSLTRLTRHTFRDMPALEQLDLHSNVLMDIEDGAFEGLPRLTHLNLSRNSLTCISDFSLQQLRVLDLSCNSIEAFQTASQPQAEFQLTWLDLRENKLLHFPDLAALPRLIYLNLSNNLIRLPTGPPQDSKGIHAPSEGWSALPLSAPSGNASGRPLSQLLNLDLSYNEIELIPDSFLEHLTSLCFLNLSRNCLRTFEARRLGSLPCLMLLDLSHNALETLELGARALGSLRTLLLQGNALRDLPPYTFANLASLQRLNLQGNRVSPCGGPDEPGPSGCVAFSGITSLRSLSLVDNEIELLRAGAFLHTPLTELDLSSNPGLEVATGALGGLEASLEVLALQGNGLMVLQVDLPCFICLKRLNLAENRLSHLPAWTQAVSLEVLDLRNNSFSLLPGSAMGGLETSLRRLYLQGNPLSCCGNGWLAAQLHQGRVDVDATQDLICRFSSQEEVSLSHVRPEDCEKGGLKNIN
T2 sequence (P01137 30-390 limits assumed, chain 1 of 2): as the sequence (P01137 30-390, chain 1 of 2) above
T2 sequence (Q86YC3 other isoform, or with tags, fused parts or gaps limits assumed, chain 2 of 2): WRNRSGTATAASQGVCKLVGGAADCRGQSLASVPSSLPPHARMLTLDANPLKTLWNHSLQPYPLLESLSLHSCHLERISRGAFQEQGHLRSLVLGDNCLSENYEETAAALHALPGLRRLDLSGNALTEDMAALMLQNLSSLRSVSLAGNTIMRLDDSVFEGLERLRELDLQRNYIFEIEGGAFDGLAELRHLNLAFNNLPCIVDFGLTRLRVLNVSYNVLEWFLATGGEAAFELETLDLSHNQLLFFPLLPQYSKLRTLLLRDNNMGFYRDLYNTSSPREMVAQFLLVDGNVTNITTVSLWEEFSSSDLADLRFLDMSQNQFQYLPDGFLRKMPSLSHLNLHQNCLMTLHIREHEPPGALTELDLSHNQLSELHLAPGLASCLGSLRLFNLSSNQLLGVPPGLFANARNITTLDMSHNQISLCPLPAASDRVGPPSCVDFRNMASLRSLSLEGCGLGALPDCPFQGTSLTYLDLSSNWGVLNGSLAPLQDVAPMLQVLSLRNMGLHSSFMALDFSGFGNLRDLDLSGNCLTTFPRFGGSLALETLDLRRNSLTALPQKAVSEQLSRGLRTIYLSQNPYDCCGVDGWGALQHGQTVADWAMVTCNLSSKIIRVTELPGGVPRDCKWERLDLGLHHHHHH

B1: Ab6 (antibody, V domains shown)
VH: EVQLVESGGGLVQPGGSLRLSCTASGFTFSSFSMDWVRQAPGKGLEWVSYISPSADTIYYADSVKGRFTISRDNAKNTLYLQMNSLRAEDTAVYYCARGVLDYGDMLMPWGQGTLVTVSS
VL: DIQMTQSPSSLSASVGDRVTITCQASQDITNYLNWYQQKPGKAPKLLIYDASNLETGVPSRFSGSGSGTDFTFTISSLQPEDIATYYCQQADNHPPWTFGGGTKVEIKR
IC50 (read off the curve) (LTBP:proTGFβ1): ~1 nM
IC50 (read off the curve) [1]: ~0.03 nM
IC50 (read off the curve) [2]: ~0.06 nM
